In the supplement of paper PMC10567573:

B1: CCDC6 (parent)
chain: TLFKKIQALQKEKETLAVNYEKEE
B2: PRPH (parent)
chain: DEIEFLKKLHEEELRDLQVSVESQ

Variants of: B1
Assay: protein stability index of a GFP-peptide fusion (GPS, HEK-293T) (PSI 1-6); higher = more stable
Details: c terminus: a fixed tail appended
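Further: lentivirally expressed fusions sorted by FACS into six bins by GFP to DsRed ratio, PSI derived from sequencing read proportions per bin multiplied by bin number.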

Protein stability index: each site, then its substitutions
Q7: S 3.65; R 2.98; H 3.18; P 4.7; E 3.57; M 2.73; K 3.31; F 2.3; D 4.38; N 4.02; W 1.99; L 2.71; Y 2.55; T 3.54; C 2.73; G 3.51; A 2.85; I 2.6; V 2.7
K5: L 2.27; D 4.85; C 2.52; E 4.27; T 2.95; G 4.19; R 2.75; Q 3.36; P 4.74; Y 2.15; N 3.78; S 3.47; I 1.79; A 2.43; W 3.67; M 2.22; H 2.88; F 1.61; V 1.76
L9: D 4.67; C 4.33; S 4.05; A 3.92; E 4.37; G 3.92; K 4.35; W 3.5; N 4.55; M 2.74; T 4.6; F 3.46; H 3.88; Q 4.48; R 4.25; P 5.08; I 3.57; Y 3.23; V 4.22
A8: R 3.38; C 3.15; N 3.75; E 4.05; F 3.54; Y 2.75; H 3.25; T 3.49; M 2.69; Q 3.23; P 4.25; W 2.75; L 3.4; K 3.88; V 4.34; I 3.4; G 3.72; D 3.51; S 3.47
K11: A 3.23; F 2.94; D 3.79; T 2.89; I 2.85; E 3.69; V 2.81; H 3.28; S 3.36; N 3.55; M 2.78; P 4.1; Q 3.21; R 2.59; G 3.71; L 3.05; C 3.12
L2: H 4.96; S 4.83; E 5.56; W 3.68; G 5.25; M 4.28; I 3.4; F 4.25; Q 4.91; A 4.08; V 3.82; T 5.1; Y 3.74; P 5.29; K 5.2; R 5.13; D 5.26; C 4.55; N 5.26
Q10: W 2.65; F 2.2; N 2.89; I 2.35; T 3.79; Y 2.64; R 2.64; L 2.45; H 3.3; A 3.17; M 2.42; E 4.41; D 4.41; K 3.08; P 3.99; S 3.41; V 2.91; C 3.17; G 3.89
K4: F 3.44; W 2.74; E 3.33; M 2.8; G 3.75; D 4.37; V 3.52; T 4.27; Q 3.56; H 3.88; I 2.76; C 2.73; S 3.82; A 3.01; N 3.68; R 3.35; P 4.83; L 3.05; Y 2.58
T1: E 3.67; A 3.85; W 1.88; Y 3.01; V 3.12; P 3.71; H 3.48; R 3.04; G 3.73; I 2.69; Q 2.84; S 2.92; M 2.51; K 3.06; N 4.12; F 2.64; C 3.34; L 2.38; D 4.01
I6: Q 4.28; W 3.4; L 3.59; M 4.32; P 4.78; Y 3.93; G 5.06; S 4.81; D 5.34; A 4.59; K 4.92; V 3.85; F 3.99; H 4.17; N 4.36; C 4.44; R 4.79; E 5.39; T 4.75
F3: A 4.68; K 4.78; W 2.26; E 5.42; N 4.59; G 5.23; L 3.08; H 4.9; D 5.28; Q 4.78; V 3.76; S 4.62; C 3.62; Y 3.67; R 4.38; I 3.51; M 3.41; P 5.44; T 5.1

Variants of: B2
Assay: as above
Details: c terminus: a fixed tail appended

Protein stability index of substitutions, site by site:
L17: W 4.8; Y 3.39; F 4.69; Q 5.15
Q18: Y 4.21; G 5; F 3.36; V 4.38; E 4.81
K7: C 2.85; D 5.06; F 2.11; E 4.83; Y 2.42; W 1.96; M 3.07; L 2.37
D16: T 4.72; N 4.2
R15: Q 4.66; S 4.8; L 4.38; D 5.45; E 4.83; G 4.28
V19: P 4.93; L 4.85; E 5; T 5.19; M 4.76; C 5.23; N 4.87
L14: R 5.22; C 5.18; D 5.57; T 5.78; E 4.85; H 5.31; W 4.38; K 4.92; Y 4.6
E13: A 3.9; C 3.59; S 4.16; Y 3.95; F 2.85; R 4.42; P 5.05; V 3.73
H10: D 5.25; T 4.95
K8: T 4.78; E 4.37; S 4.15; I 4.35; L 4.32; Y 4.23; Q 4.98; G 4.55
E2: Y 1.91; I 2.1; D 5.01
E22: F 3.38; L 3.88
I3: V 4.83; E 5.43; S 5.42; R 5.28; K 5.18; P 4.94
V21: E 5.81; Q 4.39; L 4.71; A 5.45
D1: R 4.01; I 3.46; H 4.99; E 4.78; A 4.22; M 4.18; G 4.53
E4: I 4.12; H 4.55; F 3.96; P 4.62; D 4.93; R 3.98; T 4.16
S20: G 4.29; T 4.87; R 5.1; V 4.88
Q24: D 4.46; F 3.91; R 4.22; A 4.57; P 3.96; H 4.52; V 4.23
L9: E 5.05; G 5.58; K 5.49
E11: H 4.42; G 4.95; I 4.01; T 4.46; Q 4.08
E12: R 4.8; G 4.19; I 4.05; V 4.1; K 4.82; C 4.54
L6: R 4.91; F 4.42; I 4.97; N 5.61
S23: C 4.55; W 3.45; P 4.71; H 4.94
F5: H 4.85; G 5.36; W 4.42; E 5.47; L 5.18; Y 4.58
